Measurements taken from patent US20100260765A1 (AstraZeneca / MedImmune, published 2010).

Legend:
[1] = target: KDR endogenously expressed on human umbilical vein endothelial cells (HUVEC) (human, UniProt P35968 20-1356); test: cell-based or functional assay
[2] = target: T1, soluble KDR extracellular domain (ECD) (Calbiochem) (human, UniProt P35968 20-764); test: High Antigen ELISA, KDR coat 500 ng/mL, supernatant 1:25
T1 construct: extracellular domain; Bought protein; also called KDR-ECD; VEGF Receptor 2 D1-7, Cat. #676490
Method: (§1) ELISA plates were coated with a greater amount of KDR (at 500 ng/mL) in comparison with the Limited Antigen Quantitation assay described below. Sample containing antibody (Ab) was titrated on the KDR-coated ELISA plates and was incubated overnight at 4° C. to allow Ab binding to approach equilibrium. Titration of Ab in sample covered a dilution range of 1:25 to 1:18,225. A standard curve of KDR-specific antibody of known concentration was used to define the linear range of the assay. Data within the linear range were used to derive the relative concentration of KDR-specific Ab in each titrated sample. The high KDR concentration and the overnight incubation limited the effect of Ab affinity, allowing quantitation of the relative amount of KDR-specific Ab present in each sample.

[3] = target: T1, soluble KDR extracellular domain (ECD) …; test: High Antigen ELISA, KDR coat 500 ng/mL, supernatant 1:75
Method: as §1

[4] = target: T1, soluble KDR extracellular domain (ECD) …; test: High Antigen ELISA, KDR coat 500 ng/mL, supernatant 1:225
Method: as §1

[5] = target: T1, soluble KDR extracellular domain (ECD) …; test: High Antigen ELISA, KDR coat 500 ng/mL, supernatant 1:675
Method: as §1

[6] = target: T1, soluble KDR extracellular domain (ECD) …; test: High Antigen ELISA, KDR coat 500 ng/mL, supernatant 1:2025
Method: as §1

[7] = target: T1, soluble KDR extracellular domain (ECD) …; test: High Antigen ELISA, KDR coat 500 ng/mL, supernatant 1:6075
Method: as §1

[8] = target: T1, soluble KDR extracellular domain (ECD) …; test: Limited Antigen ELISA, KDR coat 25 ng/mL, supernatant 1:25
Method: (§2) Samples containing one concentration of antibody (Ab) (1:25 dilution) were incubated overnight to allow Ab binding to approach equilibrium. The low antigen concentration limited the effect of antibody concentration, allowing ranking of the antibodies based on their relative affinity.

[9] = target: T1, soluble KDR extracellular domain (ECD) …; test: Limited Antigen ELISA, KDR coat 50 ng/mL, supernatant 1:25
Method: as §2

[10] = target: T1, soluble KDR extracellular domain (ECD) …; test: High Antigen ELISA, KDR coat 500 ng/mL, supernatant 1:18,225
Method: as §1

[11] = target: T1, soluble KDR extracellular domain (ECD) …; test: Limited Antigen ELISA, KDR coat 12.5 ng/mL, supernatant 1:25
Method: as §2

[12] = target: T1, soluble KDR extracellular domain (ECD) …; test: Limited Antigen ELISA, KDR coat 6.25 ng/mL, supernatant 1:25
Method: as §2

[13] = target: T1, soluble KDR extracellular domain (ECD) …; test: Limited Antigen ELISA, KDR coat 3.125 ng/mL, supernatant 1:25
Method: as §2

T1 sequence (P35968 20-764): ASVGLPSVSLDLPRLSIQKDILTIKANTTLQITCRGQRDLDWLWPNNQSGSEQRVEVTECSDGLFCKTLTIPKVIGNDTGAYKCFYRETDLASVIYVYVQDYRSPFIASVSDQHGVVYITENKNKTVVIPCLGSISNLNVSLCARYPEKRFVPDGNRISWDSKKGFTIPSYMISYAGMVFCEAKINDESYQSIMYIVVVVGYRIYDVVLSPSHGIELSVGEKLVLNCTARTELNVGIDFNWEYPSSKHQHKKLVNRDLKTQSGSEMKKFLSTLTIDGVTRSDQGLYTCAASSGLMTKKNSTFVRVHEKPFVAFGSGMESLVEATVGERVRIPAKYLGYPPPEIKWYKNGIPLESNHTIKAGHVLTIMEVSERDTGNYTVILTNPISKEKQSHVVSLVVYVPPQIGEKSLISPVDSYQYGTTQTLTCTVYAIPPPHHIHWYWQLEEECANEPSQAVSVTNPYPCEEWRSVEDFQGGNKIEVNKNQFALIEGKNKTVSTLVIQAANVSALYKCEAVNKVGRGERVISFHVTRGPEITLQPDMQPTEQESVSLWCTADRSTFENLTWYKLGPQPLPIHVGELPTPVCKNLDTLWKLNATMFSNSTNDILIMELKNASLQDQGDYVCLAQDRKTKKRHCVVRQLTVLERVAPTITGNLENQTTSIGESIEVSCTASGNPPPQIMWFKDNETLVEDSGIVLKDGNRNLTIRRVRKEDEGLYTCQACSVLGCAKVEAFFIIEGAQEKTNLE
KDR endogenously expressed on human umbilical vein endothelial cells (HUVEC), sequence (P35968 20-1356): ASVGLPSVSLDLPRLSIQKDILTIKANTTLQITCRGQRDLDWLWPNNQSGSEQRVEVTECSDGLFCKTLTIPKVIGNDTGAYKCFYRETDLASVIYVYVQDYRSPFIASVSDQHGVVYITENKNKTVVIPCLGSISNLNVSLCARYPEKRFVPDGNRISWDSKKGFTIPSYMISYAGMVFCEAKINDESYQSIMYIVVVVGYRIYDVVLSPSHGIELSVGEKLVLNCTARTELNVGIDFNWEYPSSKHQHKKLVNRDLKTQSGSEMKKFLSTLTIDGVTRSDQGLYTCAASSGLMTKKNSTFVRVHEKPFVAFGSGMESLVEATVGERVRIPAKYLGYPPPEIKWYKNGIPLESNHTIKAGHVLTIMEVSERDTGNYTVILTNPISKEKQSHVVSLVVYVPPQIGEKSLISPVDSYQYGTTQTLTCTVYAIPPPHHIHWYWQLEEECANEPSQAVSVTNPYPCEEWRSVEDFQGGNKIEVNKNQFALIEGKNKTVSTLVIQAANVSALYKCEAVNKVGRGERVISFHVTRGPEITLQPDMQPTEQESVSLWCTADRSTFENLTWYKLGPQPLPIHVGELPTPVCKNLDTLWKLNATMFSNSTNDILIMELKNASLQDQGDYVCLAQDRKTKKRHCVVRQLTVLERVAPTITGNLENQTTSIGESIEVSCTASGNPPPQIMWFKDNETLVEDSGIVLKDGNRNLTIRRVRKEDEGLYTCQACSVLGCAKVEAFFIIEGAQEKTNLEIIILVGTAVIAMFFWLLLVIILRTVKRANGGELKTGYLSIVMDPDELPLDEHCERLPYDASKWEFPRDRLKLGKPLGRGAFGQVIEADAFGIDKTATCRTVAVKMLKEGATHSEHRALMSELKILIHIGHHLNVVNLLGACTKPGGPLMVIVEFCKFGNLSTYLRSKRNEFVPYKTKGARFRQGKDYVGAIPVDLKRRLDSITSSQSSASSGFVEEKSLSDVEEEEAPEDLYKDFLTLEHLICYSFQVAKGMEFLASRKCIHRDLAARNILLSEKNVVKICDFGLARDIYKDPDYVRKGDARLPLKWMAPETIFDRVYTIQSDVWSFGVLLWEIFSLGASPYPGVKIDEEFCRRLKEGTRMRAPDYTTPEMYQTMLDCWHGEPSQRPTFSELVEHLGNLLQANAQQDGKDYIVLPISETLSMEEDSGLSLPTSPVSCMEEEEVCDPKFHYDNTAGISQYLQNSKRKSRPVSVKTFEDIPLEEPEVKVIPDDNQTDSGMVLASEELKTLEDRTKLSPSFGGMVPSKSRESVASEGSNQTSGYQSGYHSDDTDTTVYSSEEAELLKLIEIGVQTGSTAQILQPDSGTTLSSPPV

Binder	VEGF-E-mediated Survival % Inhibition (Average) [1] [%]	VEGF-E-mediated Survival % Inhibition (n = 1) [1] [%]	VEGF-E-mediated Survival % Inhibition (n = 2) [1] [%]	ELISA reading [2]	ELISA reading [3]	ELISA reading [4]	ELISA reading [5]	ELISA reading [6]	ELISA reading [7]	ELISA reading [8]	ELISA reading [9]	ELISA reading [10]	ELISA reading [11]	ELISA reading [12]	ELISA reading [13]
21H9 (antibody, V domains shown, Fully human mAb from XenoMouse hybridoma, tested as hybridoma supernatant) VH: QVPLVESGGGVVQPGRSLRLSCAASGFTFSSYGMHWVRQAPGKGLEWVAVIWYDGSNKYYADSVQGRFTISRDNSKNTLYLQMNSLRAEDTAVYYCARGVTMVRGLIIARYYYGLDVWGQGTTVTVSS VL: DIVMTQTPLSSPVTFGQPASISCRSSQSLVHSDGNTYLSWLQQRPGQPPRLLIYKISNRFFGVPDRFSGSGAGTDFTLKISRVEAEDVGLYYCMQSTQFPLTFGGGTKVEIK	-1	-3	1	6	4.34	3.41	1.56	0.7	0.26	1.46	2.28	0.12	0.82	0.39	0.22
30D7 (antibody, V domains shown, Fully human mAb from XenoMouse hybridoma, tested as hybridoma supernatant) VH: QVPLVESGGGVVQPGRSLRLSCAASGFTFSSYGMHWVRQAPGKGLEWVAVIWYDGSNKYYADSVKGRFTISRDNSKNTLYLQMNSLRAEDTAVYYCARGVTMVRGVIIARYYYGLDVWGQGTTVTVSS VL: DIVMTQTPLSSPVTLGQPASISCRSSQSLVHSDGNTYLSWLQQRPGQPPRLLIYKISNRFFGVPDRFSGSGAGTDFTLKIGRVEAEDVGLYYCMQSTQFPLTFGGGTKVEIK	-24	-27	-22	4.66	5.09	6	4.24	2.79	1.02	1.51	2.93	0.82	0.79	0.48	0.27
22B8 (antibody, V domains shown, Fully human mAb from XenoMouse hybridoma, tested as hybridoma supernatant) VH: QLQLQESGPGLVKPSETLSLTCTVSGGSISSRYYYWGWVRQPPGKGLEWIGTIYYSGHTYYNPSLKTRVTISVDTSKNQFSLKLISVTAADTAVYYCATQQLVLYYFDFWGQGTLVTVSS VL: EIVLTQSPGTLSLSPGERAALSCRASQSISSSYLAWYQQRPGQAPRLLIYGASSRATGIPDRFNGSGSGTDFTLTISRLEPEDFAVYYCQQFGSSITFGQGTRLEIK	55	57	53	6	6	6	3.49	1.27	0.31	1.84	3.36	0.2	0.91	0.42	0.21
30A1 (antibody, V domains shown, Fully human mAb from XenoMouse hybridoma, tested as hybridoma supernatant) VH: QLQLQESGPGLVKPSETLSLTCTVSGGSISSPNYYWGWIRQPPGKGLEWIGTIYYSGNTFYNPSLKSRVTISVDTSKNQFSLKLSSVTAADTAVYYCATQQLVLYYFDFWGQGTLVTVSS VL: EIVLTQSPGTLSLSPGKRAALSCRASQSISSSYLAWYQQKPGQAPRLLIYGASSRATGIPDRFNGSGSGTDFTLTISRLEPEDFAVYYCQQLGSSITFGQGTRLEIK	58	58	59	4.52	4.78	6	4.28	3.37	1.58	0.87	1.77	1.11	0.5	0.27	0.15
24B3 (antibody, V domains shown, Fully human mAb from XenoMouse hybridoma, tested as hybridoma supernatant) VH: EVQLVESGGGLVKPGGSLRLSCAASGFTFSTYSMNWVRQAPGKGLEWVSFISGRSSYIYYADSVKGRFTISRDNAKNSLYLQMNSLRAEDTAVYYCSKDDWFEELWGQGTLVTVSS VL: DIQMTQSPSSLSASVGDRVTITCRASQGIRSDLGWYQQKPGKAPKRLIYATSSLQSGVPSRFSGSGSGTEFTLTISSLQPEDFATYYCLQHNRYPWTFGQGTKVEIK	66	65	66	2.33	1.58	1.16	0.79	0.31	0.13	0.21	0.38	0.08	0.12	0.08	0.07
33B1 (antibody, V domains shown, Fully human mAb from XenoMouse hybridoma, tested as hybridoma supernatant) VH: EVQLVESGGGLVKPGGSLRLSCAASGFTFSSYTMNWVRQAPGKGLEWVSFIDSRSSYIYYADSVKGRFTISRDNAKNSLYLQMNSLRAEDTAVYYCSKDDWFEELWGQGTLVTVSS VL: DIQMTQSPSSLSASVGDRVTITCRASQGIRNDLGWYQQKPGKAPKRLIYATSSLQSGVPSRFSGSGSGTEFTLTISSLQPEDFATYYCLHHNSFPWTFGQGTKVEIK	67	66	68	2.71	2.32	1.62	1.1	0.55	0.25	0.2	0.23	0.2	0.12	0.08	0.08
32G7 (antibody, V domains shown, Fully human mAb from XenoMouse hybridoma, tested as hybridoma supernatant) VH: EVQLVESGGGLVKPGGSLRLSCAASGFTISSYSMNWVRQAPGKGLEWVSFISSRSNYIYYADSVKGRFTISRDNAKNSLYLQMNSLRAEDTAVYYCSKDDWFEELWGQGTLVTVSS VL: DIQMTQSPSSLSASVGDRVTITCRASQDIRNDLGWYQQKPGKAPKRLIYAASSLQSGVPSRFSGSGSGTEFTLTISSLQPEDFATYYCLQHNSFPWTFGQGTKVEIK	62	69	54	2.03	1.27	0.96	0.55	0.38	0.24	0.15	0.19	0.11	0.11	0.08	0.07
24C9 (antibody, V domains shown, Fully human mAb from XenoMouse hybridoma, tested as hybridoma supernatant) VH: EVQLVESGGGLVKPGGSLRLSCAASGFTFSTYSMNWVRQAPGKGLEWVSFISGRSSYIYYADSVKGRFTISRDNAKNSLYLQMNSLRAEDTAVYYCSKDDWFEELWGQGTLVTVSS VL: DIQMTQSPSSLSASVGDRVTITCRASQGIRNDLGWYQQKPGKAPKRLIYATFSLQSGVPSRFSGSGSGTEFTLTISSLQPEDFATYYCLQHNRYPWTFGQGTKVEIK	72	72	72	3.67	2.48	2.14	1.45	0.54	0.2	0.23	0.5	0.11	0.13	0.09	0.07
